Assay results as given in patent publication US20260055173A1.

Assays:
[1] = molecular target: monkey PD-1 (ACRO, His tag) (monkey) (UniProt B0LAJ3); test: ELISA, monkey PD-1 (His tag) coated, anti-human IgG Fc-HRP
[2] = molecular target: biotin-labeled human VEGF (ACRO, biotinylated protein) (human) (UniProt P15692); test: dual (bridging) ELISA: human PD-1 (His tag) coated, antibody, then biotinylated human VEGF, streptavidin-HRP
[3] = molecular target: human VEGF (ACRO, His tag) (human) (UniProt P15692); test: ELISA, human VEGF (His tag) coated, anti-human IgG Fc-HRP
human VEGF (ACRO, His tag) (human), sequence (P15692 other isoform, or with tags, fused parts or gaps limits assumed): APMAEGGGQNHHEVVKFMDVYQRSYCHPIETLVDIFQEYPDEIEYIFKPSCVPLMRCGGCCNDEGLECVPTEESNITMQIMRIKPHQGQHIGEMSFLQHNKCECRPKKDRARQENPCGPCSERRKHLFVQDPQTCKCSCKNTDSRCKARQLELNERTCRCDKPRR

monkey PD-1 (ACRO, His tag) (monkey), sequence (B0LAJ3 entry or part of it limits assumed, form in doubt): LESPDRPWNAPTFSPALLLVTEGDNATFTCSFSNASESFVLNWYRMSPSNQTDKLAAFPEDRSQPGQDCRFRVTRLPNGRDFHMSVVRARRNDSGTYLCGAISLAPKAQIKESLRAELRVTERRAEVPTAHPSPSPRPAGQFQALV
biotin-labeled human VEGF (ACRO, biotinylated protein) (human), sequence (P15692 other isoform, or with tags, fused parts or gaps limits assumed): as the sequence (P15692 other isoform, or with tags, fused parts or gaps limits assumed) above

EC50 [1] | TOP OD [1] | TOP OD [2] | TOP OD [3] | Substance
0.187 nM | 3.08 OD450 | – | – | Keytruda (antibody)
0.153 nM | 2.99 OD450 | 0.048 OD450 | 0.048 OD450 | Opdivo (antibody)
